The values below come from patent publication CN115141273A.

The test addresses 猫杯状病毒 (Feline Calicivirus, FCV), BJH13株 (Feline calicivirus strain BJH13). As to the kind of experiment: cell-based or functional assay.

B1: 2G3单克隆抗体 (monoclonal antibody against feline calicivirus, from hybridoma 2G3, CGMCC NO.45148) (antibody, V domains shown)
VH: QVQLQQSGPELVKPGTSVKLSCQASGYTFTNYYMWWVKQRPGQGLEWIGQINPNNDNTDFNEKFRNKATLTVDKSSSTAYMQLSRLTSEDSAVYYCTRRAYWGQGTLVTVSA
VL: GVLLTQAPLSLPVSLGDQASISCRSSQYVVYINGNSYLEWYLQKPGQSPKLLIYKVSNRFSGVPDRFSGSGSGTDFTLKISRVEAEDLGIYYCFQGSHVPYTFGGGTKLEIR
On to B1, for which the 中和抗体效价 (neutralising antibody titre of the injection) is 1280 titre (1:x), the 中和效价 (neutralisation titre of hybridoma supernatant) was 220 to 320 titre (1:x) and the 小鼠腹水中和效价 (neutralisation titre of ascites) is 25100 titre (1:x).
